Data published in the DeepSol protein solubility set.

assay: soluble on expression in E. coli; label from the status in PepcDB or PDB records

Soluble on expression in E. coli, soluble:
GMKLLLTRPEGKNAAMASALDALAIPYLVEPLLSVEAAAVTQAQLDELSRADILIFISTSAVSFATPWLKDQWPKATYYAVGDATADALALQGITAERSPADSQATEGLLTLPSLEQVSGKQIVIVRGKGGREAMADGLRLRGANVSYLEVYQRACPPLDAPASVSRWQSFGIDTIVVTSGEVLENLINLVPKDSFAWLRDCHIIVPSARVETQARKKGLRRVTNAGAANQAAVLDALGM, GMKLQTTIQHEPKDGSGFDRGLREFFEYRDTGVNEATGGMFGAHVIRAIPGKEAKPTWHTHTVGFQLFYVLRGWVEFEYEDIGAVMLEAGGSAFQPPGVRHRELRHSDDLEVLEIVSPAGFATSVVDLEEARKP, GMKNIKIMRLVTGEDIIGNISESQGLITIKKAFVIIPMQATPGKPVQLVLSPWQPYTDDKEIVIDDSKVITITSPKDDIIKSYESHTSEIITPSGLITET, GMKSLHRPDLYSWSTFNPARNIDFNGFAWIRPEGNILIDPVALSNHDWKHLESLGGVVWIVLTNSDHVRSAKEIADQTYTKIAGPVAEKENFPIYCDRWLSDGDELVPGLKVMELQGSKTPGELALLLEETTLITGDLVRAYRAGGLEILPDEKLMNKQKVVASVRRLAALEKVEAVLVGDGWSVFRDGRDRLKELVATLA, GMKTIIRQPQLYRFLKYCNESNLDKTVLDCGAGGDLPPLSIFVEDGYKTYGIEISDLQLKKAENFSRENNFKLNISKGDIRKLPFKDESMSFVYSYGTIFHMRKNDVKEAIDEIKRVLKPGGLACINFLTTKDERYNKGEKIGEGEFLQLERGEKVIHSYVSLEEADKYFKDMKVLFKEDRVVERINDGLKIKQGYVDYIAEKFSKSIL, GMNTNLASFIVGLIIDENDRFYFVQKDGQTYALAKEEGQHTVGDTVKGFAYTDMKQKLRLTTLEVTATQDQFGWGRVTEVRKDLGVFVDTGLPDKEIVVSLDILPELKELWPKKGDQLYIRLEVDKKDRIWGLLAYQEDFQRLARPAYNNMQNQNWPAIVYRLKLSGTFVYLPENNMLGFIHPSERYAEPRLGQVLDARVIGFREVDRTLNLSLKPRSFEMLENDAQMILTYLESNGGFMTLNDKSSPDDIKATFGISKGQFKKALGGLMKAGKIKQDQFGTELI, GMQDERWNHPLYTTTAINDEELEGHAYIPGGLKVQTSSPMNDHPGTNPEQLLGLSLSTCLEATLEAVEKEHGLPHTGAVRVKVAFIGARAEYQFLVHAQVMVKGVDFDTAKAFTNEIENRCPVSKLLKNSGNYTIETVTDFKD, GMSADIVFDRGSPSDIDEIKTFTSNTWKVGYYTDLYSKLADTGTMDDYVDKVIERWVNDGSVYVLRVSGRPVATIHMEKLPDGSVMLGGLRVHPEYRGSRLGMSIMQETIQFLRGKTERLRSAVYSWNEPSLRLVHRLGFHQVEEYPIYTFQGGSTAVPALKPVNERYAGRWRCFFIDWKYMCSDDPDIIHEEYSNNLIVDGSTFVYFDIYEGGIDLFVNDSDDASSFIEKYRSMNGRITFYVRKALANGLPYVPASSLTVWEYRY, GMSEENKIGTYQFVAEPFHVDFNGRLTMGVLGNHLLNCAGFHASDRGFGIATLNEDNYTWVLSRLAIELDEMPYQYEKFSVQTWVENVYRLFTDRNFAVIDKDGKKIGYARSVWAMINLNTRKPADLLALHGGSIVDYICDEPCPIEKPSRIKVTSNQPVATLTAKYSDIDINGHVNSIRYIEHILDLFPIELYQTKRIRRFEMAYVAESYFGDELSFFCDEVSENEFHVEVKKNGSEVVCRSKVIFE, GMSKIFNEELAVIEAAAIAYLTAFNRADIPAVIATYTDDGVLMGPGRPAAVGKDELAEVYLSVFETVGFDMAYEIKEVVQTSADWAFVRSATEGTETNKATGVVTPAAYQELFLLRKSATGSWQTARYCTSKISP, GMSTPSPALFFNTVNAYQRSAAIKAAVELNVFTAISQGIESSQSLAQKCQTSERGMRMLCDYLVIIGFMTKQAEGYRLTSDSAMFLDRQSKFYVGDAIEFLLSPMITNGFNDLTAAVLKGGTAISSEGTLSPEHPVWVQFAKAMSPMMANPAQLIAQLVNENKIEPLKVLDISASHGLFGIAVAQHNPNAEIFGVDWASVLEVAKENARIQGVASRYHTIAGSAFEVDYGNDYDLVLLPNFLHHFDVATCEQLLRKIKTALAVEGKVIVFDFIPNSDRITPPDAAAFSLVMLATTPNGDAYTFAEYESMFSNAGFSHSQLHSLPTTQQQVIVAYK
